Consider 1 molecule from patent US8298782B2, “Reversible MHC multimer staining for functional purification of antigen-specific T cells” (priority 2000, dated 2012).

The test relates to LLO91-99-specific T cells. The experiment in a line: epitope-tag (HSV) staining for surface-bound MHC / dissociation experiments by flow cytometry. In kind it is cell-based. On the procedure:
FIG. 5: Development of a reversible MHC multimer staining technology. (a) LLO91-99-specific T cells were stained for 30 min with monomeric or tetrameric (“tet”) LLO91-99/H2-K^d/β2m-HSV-tag or p60217-225/H2-K^d/β2m-HSV-tag reagents. Cells were fixed without washing (upper histogram) or after 2 washing steps (lower histogram) with 1% paraformaldehyde and subsequently stained for remaining HSV-epitope-tag on the cell surface (x-axis). (b+c) LLO91-99-specific T cells were stained for 45 min with LLO91-99/H2-K^dStrep-tag® II peptide/β2-HSV-tag:Strep:Tactin® polypeptide polymers (IBA GmbH) (“poly”), briefly washed to remove unbound reagents, and incubated in the presence (b) or absence (c) of 1 mM d-biotin; all steps were performed at 4° C. Cell aliquots were harvested after different time intervals (indicated above histograms), fixed with 1% paraformaldehyde, and stained for remaining HSV-epitope-tag on the cell surface (x-axis).
FIG. 6: Improvement of MHC-Strep-tag® II peptide/Strep-Tactin® polypeptide (IBA GmbH) multimer reagents. […]
FIG. 7: Reversible MHC multimer staining and T cell function. […] (a) Staining for recombinant MHC-molecules (detected by epitope-tag staining, x-axis) on differently treated T cells. […] Numbers of viable bacteria (y-axis) were determined 48 h following Lysteria infection. […]

B1: monomeric MHC/epitope molecules: monomeric LLO91-99/H2-K^d/β2m-HSV-tag reagent (protein)
MHC heavy: GPHSLRYFVTAVSRPGLGEPRFIAVGYVDDTQFVRFDSDADNPRFEPRAPWMEQEGPEYWEEQTQRAKSDEQWFRVSLRTAQRYYNQSKGGSHTFQRMFGCDVGSDWRLLRGYQQFAYDGRDYIALNEDLKTWTAADTAALITRRKWEQAGDAEYYRAYLEGECVEWLRRYLELGNETLLRTDSPKAHVTYHPRSQVDVTLRCWALGFYPADITLTWQLNGEDLTQDMELVETRPAGDGTFQKWAAVVVPLGKEQNYTCHVHHKGLPEPLTLRWKLPPSTVSNT
b2m: IQKTPQIQVYSRHPPENGKPNILNCYVTQFHPPHIEIQMLKNGKKIPKVEMSDMSFSKDWSFYILAHTEFTPTETDTYACRVKHASMAEPKTVYWDRDM
peptide: GYKDGNEYI
modifications: left off: a dimerising Fc or GST; small tags and cut ends
notes: monomeric LLO91-99/H2-K^d/β2m-HSV-tag reagent
In the case of B1, where the note is “after brief washing, 4° C.”, the “MHC monomers on the cell surface” value was “all reagent-derived MHC monomers disappear from the cell surface”. Moreover, under “fixed immediately with paraformaldehyde, no washing”, the “interaction of MHC monomers with T cell surface” value was “some detectable interaction”.
